Test results from publication PMC6106110, “Aspf2 From Aspergillus fumigatus Recruits Human Immune Regulators for Immune Evasion and Cell Damage” (Frontiers in Immunology, 2018).
Where two headings read alike, the source gives them in different places.

How the values were obtained:
[1] = biological target: Recombinant Aspf2 (A. fumigatus) lacking the N-terminal 19-amino acid signal peptide, His-tagged (Aspergillus fumigatus) (UniProt P79017); assay: BLI; Aspf2 loaded on Ni(II)-NTA biosensor; analyte Factor H 190-3,000 nM (150 s association, 150 s dissociation) or plasminogen 687.5-5,500 nM (200 s each); buffer control subtracted, BLITZ software
[2] = biological target: Aspf2 expressed on the surface of A. fumigatus conidia (Aspergillus fumigatus (endogenous in CEA17 ΔakuB^Ku80 conidia)) (UniProt P79017); assay: flow cytometry on cells; wild-type, Δaspf2 and aspf2^C conidia (BSA-treated) incubated with increasing amounts of purified Factor H, FHL-1, FHR1 or plasminogen 1 h at RT; bound protein detected with antibodies; median fluorescence intensity
[3] = biological target: Aspf2 expressed on the surface of A. fumigatus conidia (Aspergillus fumigatus (endogenous in CEA17 ΔakuB^Ku80 conidia)) (UniProt P79017); assay: as above; remark: listed apart in the source
Human Factor H = biological target: T1, Human Factor H (human, UniProt P08603 19-1231); assay: BLI; Aspf2 loaded on Ni(II)-NTA biosensor; analyte Factor H 190-3,000 nM (150 s association, 150 s dissociation) or plasminogen 687.5-5,500 nM (200 s each); buffer control subtracted, BLITZ software; conditions: both partners purified
T1 construct: human complement Factor H, 150-kDa plasma protein composed of 20 short conserved repeats (SCR); also called NHS derived Factor H; source: bought: CompTech (purified human Factor H); also in normal human serum (NHS-EDTA) and C3 depleted serum
T1 sequence (P08603 19-1231): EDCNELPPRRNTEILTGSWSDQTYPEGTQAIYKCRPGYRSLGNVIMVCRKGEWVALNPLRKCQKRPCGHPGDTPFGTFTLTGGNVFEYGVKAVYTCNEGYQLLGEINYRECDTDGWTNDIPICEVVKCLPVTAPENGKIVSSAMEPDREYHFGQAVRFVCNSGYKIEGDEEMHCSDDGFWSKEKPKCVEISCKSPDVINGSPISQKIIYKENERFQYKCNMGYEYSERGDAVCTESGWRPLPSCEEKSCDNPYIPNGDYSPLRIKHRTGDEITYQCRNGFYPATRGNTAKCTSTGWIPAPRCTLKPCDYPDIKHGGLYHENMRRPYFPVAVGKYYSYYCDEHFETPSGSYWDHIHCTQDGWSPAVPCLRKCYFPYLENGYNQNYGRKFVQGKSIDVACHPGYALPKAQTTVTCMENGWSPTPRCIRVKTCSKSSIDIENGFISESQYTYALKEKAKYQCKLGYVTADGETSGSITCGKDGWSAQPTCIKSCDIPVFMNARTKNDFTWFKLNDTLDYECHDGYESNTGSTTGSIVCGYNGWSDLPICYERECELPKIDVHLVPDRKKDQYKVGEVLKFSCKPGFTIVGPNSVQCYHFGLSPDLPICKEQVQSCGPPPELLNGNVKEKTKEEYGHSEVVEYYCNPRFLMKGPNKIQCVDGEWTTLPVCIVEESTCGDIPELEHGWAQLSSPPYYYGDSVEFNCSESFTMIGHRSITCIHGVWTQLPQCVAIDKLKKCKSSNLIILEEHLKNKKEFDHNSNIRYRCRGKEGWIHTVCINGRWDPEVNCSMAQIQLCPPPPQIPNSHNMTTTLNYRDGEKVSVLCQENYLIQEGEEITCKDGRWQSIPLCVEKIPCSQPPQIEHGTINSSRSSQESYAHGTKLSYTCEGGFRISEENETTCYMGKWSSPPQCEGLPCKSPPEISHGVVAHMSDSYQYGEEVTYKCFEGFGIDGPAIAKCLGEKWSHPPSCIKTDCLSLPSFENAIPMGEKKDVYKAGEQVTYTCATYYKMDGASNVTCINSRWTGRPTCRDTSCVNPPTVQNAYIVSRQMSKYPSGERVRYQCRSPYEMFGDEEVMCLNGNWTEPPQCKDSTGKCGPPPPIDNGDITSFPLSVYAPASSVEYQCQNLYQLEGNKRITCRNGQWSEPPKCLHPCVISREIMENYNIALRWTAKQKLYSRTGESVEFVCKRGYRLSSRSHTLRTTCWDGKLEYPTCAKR

In the case of Human plasminogen (natural protein), the Kd [1] is reported as 846 nM, the percent lower binding to Δaspf2 conidia than to wild-type conidia (plasminogen at 20 µg/ml) [2] is reported as 31% and the percent lower binding to Δaspf2 conidia than to wild-type conidia (plasminogen at 20 µg/ml) [3] is reported as 24%.

B1: Recombinant Aspf2 (A. fumigatus) lacking the N-terminal 19-amino acid signal peptide, His-tagged (natural protein, Aspergillus fumigatus, UniProt P79017 20-310, looked up)
chain: TLPTSPVPIAARATPHEPVFFSWDAGAVTSFPIHSSCNATQRRQIEAGLNEAVELARHAKAHILRWGNESEIYRKYFGNRPTMEAVGAYDVIVNGDKANVLFRCDNPDGNCALEGWGGHWRGANATSETVICDRSYTTRRWLVSMCSQGYTVAGSETNTFWASDLMHRLYHVPAVGQGWVDHFADGYDEVIALAKSNGTESTHDSEALQYFALEAYAFDIAAPGVGCAGESHGPDQGHDTGSASAPASTSTSSSSSGSGSGATTTPTDSPSATIDVPSNCHTHEGGQLHCT
notes: Aspf2 of Aspergillus fumigatus, a 310 amino acid-long protein; cloned from cDNA of strain CEA17 akuB^KU80 without the N-terminal 19-amino acid signal peptide; also called ΔN19AspF2; source: Pichia pastoris X33 (pPICZαB), culture supernatant, purified (HisTrap column)
In the case of B1, the Kd (Human Factor H) is reported as 76 nM.
